Experimental data published in patent US20180141972.

Experiments:
[1] = biological target: Spycatcher-WELQ-Tem1 fusion protein (Spycatcher followed by a SplB protease site with a P1' methionine and the lactamase Tem1) (UniProt P62593)
[2] = test system: Spycatcher-WELQ-LSSmOrange fusion protein

## SplB protease fused to Spytag
[1]
  cleavage of the fusion protein to native Tem1 (gel, FIG. 3): this led to the cleavage of Tem1 at the first methionine
[2]
  cleavage of the fusion protein to native LSSmOrange (gel, FIG. 4): A similar experiment with LSSmOrange replacing Tem1 yielded the same result
